Data set [1] has as its target rRM6. The data set is described as follows: SEC-MALS; 100 uL loaded (wtRop 3 mg/mL, rRop 5.5 mg/mL, rRM6 3.5 mg/mL) on Superdex 75 (wtRop, rRop) or Superdex 200 (rRM6); rRop from the non-refolding protocol. Background: In gel filtration, larger molecules generally elute earlier.
The target in data set [2] is rRM6. The data set is described as follows: SAXS; 10 °C, 1–12 mg/mL; molecular mass from I(0) of the Guinier plot against BSA; rRop from the refolding protocol.
For data set [3], the target named is rRM6. The data set is described as follows: SEC; Sephacryl S-200 high-resolution column, 20 °C, 0.5 mL/min, after Ni-NTA; rRop from the refolding protocol gives an asymmetric peak.
The target in data set [4] is rRop. The data set is described as follows: SEC-MALS; 100 uL loaded (wtRop 3 mg/mL, rRop 5.5 mg/mL, rRM6 3.5 mg/mL) on Superdex 75 (wtRop, rRop) or Superdex 200 (rRM6); rRop from the non-refolding protocol.
Data set [5] addresses RM6 (UniProt P03051). The data set is described as follows: SAXS; 10 °C, 1–12 mg/mL; molecular mass from I(0) of the Guinier plot against BSA; rRop from the refolding protocol.
Data set [6] deals with the molecule itself. The data set is described as follows: SEC-MALS; 100 uL loaded (wtRop 3 mg/mL, rRop 5.5 mg/mL, rRM6 3.5 mg/mL) on Superdex 75 (wtRop, rRop) or Superdex 200 (rRM6); rRop from the non-refolding protocol.

This is an account of results in publication PMC7920257, “Probing Protein Folding with Sequence-Reversed α-Helical Bundles” (International Journal of Molecular Sciences, 2021).

Turning to rRM6, the stoichiometry N in data set [1], in data set [2] and in data set [3] was 4 each time.
The molecule rRop had a stoichiometry N in data set [4] of 2.
Molecule “RM6 (from UniProt P03051 1-63) (natural protein)” came in with a stoichiometry N in data set [5] of 4.

B1: Rop (natural protein)
chain: MTKQEKTALNMARFIRSQTLTLLEKLNELDADEQADICESLHDHADELYRSCLARFGDDGENL
notes: homodimeric 4-alpha-helical bundle; also called wtRop; wild-type Rop
In the case of B1, the “stoichiometry N” value in data set [6] is 2.

By stoichiometry N is commonly meant the number of molecules, sites or subunits per partner or assembly.
